According to patent US6437095 (Hoffmann-La Roche, dated 2002):
Where no end group is shown, it is not given here.

Biological target: T1, polyionic peptide AlaCysLysLysLysLysLysLysLysLys (ACK8) (also: also used as mixed disulfide with glutathione on Cys (ACK8-SG))
T1 construct: Synthetic peptide (Fmoc); also called ACK8-SG (mixed disulfide with glutathione)
T1 peptide: ACKKKKKKKK
Experiment: 20 µM ACE8 with the mixed disulfide ACK8-SG, 0 to 1 M NaCl, cation exchange chromatography

B1: polyionic peptide AlaCysGluGluGluGluGluGluGluGlu (ACE8) (peptide)
peptide: ACEEEEEEEE
notes: Synthetic peptide (Fmoc)
- binding result: binds
